This test has as its target spike proteins of the tested omicron. Description: cell-based or functional assay.

“And” between values parts separate entries of the source, which are not always exact repeats. Equal entries are not always repeated.

B1: VHH R3_DC23 (VHH)
VHH: QVQLQESGGGLVQAGDSLTLSCAVSGRIFSTYTMGWFRQAPGKEREFVAAVRWGAGTIYYADSMKGRFTISRDSAKNTVDLQMNSTKPEDTAVYYCGAAYVSKANYGSLWYQDSRRYDYWGQGTQVTVSS
Take B1: the IC50, neutralisation of VSV spike pseudotypes was 2.9 ng/mL and 5.7 ng/mL.

(Values after US20250313611A1.)
